Here are results for eight molecules from patent US20180002437A1 (ABRUZZO THERANOSTIC S R L, published 2018).

For test [1], the target named is T1, human Trop-2 on the cell surface (native, endogenous or transfected) (human, UniProt P09758 27-323).
T1 sequence: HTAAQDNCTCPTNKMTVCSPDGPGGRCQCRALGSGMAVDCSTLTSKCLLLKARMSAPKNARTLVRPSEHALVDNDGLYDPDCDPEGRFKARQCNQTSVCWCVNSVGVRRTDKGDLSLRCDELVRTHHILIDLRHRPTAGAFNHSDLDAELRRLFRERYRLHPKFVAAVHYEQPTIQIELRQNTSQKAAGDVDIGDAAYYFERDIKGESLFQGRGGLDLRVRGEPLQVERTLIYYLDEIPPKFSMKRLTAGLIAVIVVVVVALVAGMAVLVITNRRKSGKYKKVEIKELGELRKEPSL
The test is described as follows: cell-based or functional assay.

The target in test [2] is T1, human Trop-2 on the cell surface …. The test is described as follows: flow cytometry competition on Colo205 cells, competitor of 2EF-488 at 9x and 27x. How it is done:
(§1) The relative affinity of Hu2EF-4 e Hu2EF-5 for the native Trop-2 antigen was also analysed by means of […] competitive binding measured by flow cytometry on live tumor cells that express surface Trop-2. […] After 20 min at 4° C. cells were washed with 5 ml of SM and resuspended in 500 μl di SM with 0.5 μg/ml propidioiodide to discriminate dead cells). Fluorescence was then analysed by flow cytometry (FACScalibur, FACScan, Becton Dickinson, Sunnyvale, Calif.) as previously described (Alberti, Nutini et al. 1994) (FIG. 31). […] Simila results were obtained for the Hu2EF-4 antibody.

For test [3] the target is unchanged. The test is described as follows: flow cytometry competition on Colo205 cells, competitor of 2EF-488. On the procedure:
as §1

The target is the same in test [4]. The test is described as follows: flow cytometry competition on Colo205 cells (FIG. 31 and FIG. 37). How it is done:
FIG. 37: Relative affinity of the 2EF and Hu2EF-7 antibodies for native Trop-2—Flow citometry analysis. Human colon cancer COLO205 cells, which are positive for Trop-2, were incubated with FITC-labelled 2EF antibody pre-mixed with increasing concentrations of unlabelled Hu2EF-7 purified from CHO-K1 or YB2/0 cells.
as §1

Test [5] shares this target. The test is described as follows: flow cytometry competition with 2G10-488 on MTE 4-14/Trop-2 and MCF7 cells (sentence also sums up the competitive ELISA). An excerpt: The binding to Trop-2 of the purified Ch2G10, Hu2G10-5 and Hu2G10-6 antibodies was also characterized by flow cytometry using alive cells that express native surface Trop-2 (either ndogenous or transfected). […] The cells were then washed and analyzed by flow cytometry as described.

Test [6] has the same target. The test is described as follows: flow cytometry, MCF-7 cells, goat anti-human Alexa-488. On the procedure:
FIG. 38: Specific recognition of Trop-2 by the humanized monoclonal antibodies according to the present invention - analysis by flow cytometry. (A) human metastatic colon cancer KM12SM cells transfected with a vector expressing Trop-2 (left panel) or with the empty vector (right panel) were incubated with the ‘humanized anti-Trop-2 monoclonal antibody Hu2EF-7. […] Unstained negative controls (thin line) are shown for comparison. (B) Human colon cancer HT29 cells (left panel) or breast cancer MCF-7 cells (right panel) expressing Trop-2 were incubated with the humanized Hu-2EF-7 and Hu-2G10-6anti-Trop-2monoclonal antibodies respectively.

B1: humanized Hu2EF-7 antibody (Hu2EF VH7 and VL2, IgG1/kappa) (antibody, V domains shown)
VH: QVQLVQSGAEVKKPGASVKVSCKASGYTFTNYWIGWVKQAPGQGLEWIGDIYPGGGYTNYNEKFKGRATLTADTSASTAYMELSSLRSEDTAVYYCARGTGGGDYWGQGTLVTVSS
VL: DIVLTQSPDSLAVSLGERATINCRASQSVSTSSYSYMHWYQQKPGQPPKLLIKYASNLESGVPDRFSGSGSGTDFTLTISSLQAEDVAVYYCQHSWEIPYTFGGGTKLEIKR
As to B1, the “EC50 of ADCC reporter bioassay (luciferase luminescence; Jurkat effector cells with V158 FcgammaRIIIa and NFAT-luciferase; MCF7 target cells)” value in test [1] was 0.052 µg/mL.

B2: humanized Hu2EF-5 antibody (VH5-Hu2EF and VL1-Hu2EF, IgG1/kappa) (antibody, V domains shown)
VH: QVQLVQSGAEVKKPGASVKVSCKASGYTFTNYWIGWVRQAPGQGLEWIGDIYPGGGYTNYNEKFKGRATLTADTSTSTAYMELSSLRSEDTAVYYCARGTGGGDYWGQGTLVTVSS
VL: DIVMTQSPDSLAVSLGERATINCRASQSVSTSSYSYMHWYQQKPGQPPKLLIKYASNLESGVPDRFSGSGSGTDFTLTISSLQAEDVAVYYCQHSWEIPYTFGQGTKLEIK
notes: human IgG1/kappa constant regions
B2: the binding result in test [2] was “binds”.

B3: humanized Hu2EF-4 antibody (VH4-Hu2EF and VL1-Hu2EF, IgG1/kappa) (antibody, V domains shown)
VH: QVQLVQSGAEVKKPGASVKVSCKASGYTFTNYWIGWVRQAPGQGLEWIGDIYPGGGYTNYNEKFKGRATLTADTSASTAYMELSSLRSEDTAVYYCARGTGGGDYWGQGTLVTVSS
VL: DIVMTQSPDSLAVSLGERATINCRASQSVSTSSYSYMHWYQQKPGQPPKLLIKYASNLESGVPDRFSGSGSGTDFTLTISSLQAEDVAVYYCQHSWEIPYTFGQGTKLEIK
notes: as for B2
For B3, the binding result in test [3] is recorded as “binds”.

B4: mouse 2EF antibody (hybridoma PD 08021) (antibody, V domains shown)
VH: QVQLQQSGAELVRPGTSVKMSCKAAGYTFTNYWIGWVKQRPGHGLEWIGDIYPGGGYTNYNEKFKGKATLTADTSSSTAYMQLSSLTSEDSAIYYCARGTGGGDYWGQGTLVTVSA
VL: DIVLTQSPASLAVSLGQRATISCRASQSVSTSSYSYMHWYQQKPGQPPKLLIKYASNLESGVPARFSGSGSGTDFTLNIHPVEEEDTATYYCQHSWEIPYTFGGGTKLEIK
notes: Mouse monoclonal purified from the hybridoma; also called murine 2EF
Consider B4, for which the binding result in test [4] is listed as “binds”.

B5: chimeric 2G10 IgG1/kappa antibody (Ch2G10) (antibody, V domains shown)
VH: QGQMQQSGAELVKPGASVKLSCKTSGFTFSSSYISWLKQKPRQSLEWIAWIYAGTGGTSYNQKFTGKAQLTVDTSSSTAYMQLSSLTSEDSAIYYCARHNPRYYAMDYWGQGTSVTVSS
VL: ETTVTQSPASLSMAIGEKVTIRCITSTDIDDDMNWYQQKPGEPPKLLISEGNTLRPGVPSRFSSSGYGTDFVFTIENMLSEDVADYYCLQSDNLPYTFGGGTKLEIKR
notes: also called Ch2G10-IgG1/k
B5: the binding result in test [5] is reported as “binds”.

B6: mouse 2G10 antibody (hybridoma PD 08020) (antibody, V domains shown)
VH: QGQMQQSGAELVKPGASVKLSCKTSGFTFSSSYISWLKQKPRQSLEWIAWIYAGTGGTSYNQKFTGKAQLTVDTSSSTAYMQLSSLTSEDSAIYYCARHNPRYYAMDYWGQGTSVTVSS
VL: ETTVTQSPASLSMAIGEKVTIRCITSTDIDDDMNWYQQKPGEPPKLLISEGNTLRPGVPSRFSSSGYGTDFVFTIENMLSEDVADYYCLQSDNLPYTFGGGTKLEIK
notes: Mouse monoclonal from the hybridoma; also called murine 2G10
As to B6, the binding result in test [5] is recorded as “binds”.

B7: humanized Hu2G10-6 antibody (Hu2G10 VH2 and VL3, IgG1/kappa) (antibody, V domains shown)
VH: QVQLVQSGAEVKKPGASVKVSCKASGFTFSSSYISWLRQAPGQRLEWIAWIYAGTGGTSYNQKFTGRVTLTVDTSASTAYMELSSLRSEDTAVYYCARHNPRYYAMDYWGQGTTVTVSS
VL: DTQMTQSPSSLSASVGDRVTITCITSTDIDDDMNWYQQKPGKAPKLLISEGNTLRPGVPSRFSGSGYGTDFTFTISSLQPEDIATYYCLQSDNLPYTFGGGTKVEIKR
As to B7, in test [6], the binding result is listed as “binds”.

B8: humanized Hu2G10-5 antibody (Hu2G10 VH1 and VL3, IgG1/kappa) (antibody, V domains shown)
VH: QVQLVQSGAEVKKPGASVKVSCKASGFTFSSSYISWLRQAPGQRLEWIAWIYAGTGGTSYNQKFTGKATLTVDTSASTAYMELSSLRSEDTAVYYCARHNPRYYAMDYWGQGTTVTVSS
VL: DTQMTQSPSSLSASVGDRVTITCITSTDIDDDMNWYQQKPGKAPKLLISEGNTLRPGVPSRFSGSGYGTDFTFTISSLQPEDIATYYCLQSDNLPYTFGGGTKVEIKR
Consider B8, for which, in test [1], the “EC50 of ADCC reporter bioassay (luciferase luminescence; Jurkat effector cells with V158 FcgammaRIIIa and NFAT-luciferase; MCF7 target cells)” value is 4.15 µg/mL.
